Assay results taken from publication PMC5641120 (Oncotarget, 2017).

Target: human PD-1 (residues 33–150, Cys93 exchanged to serine) (human, UniProt Q15116 33-150, Cys93 exchanged to serine, uniform 15N labelling)
Test: NMR titration; 1H-15N HMQC, 300K; AIDA: 15N-labeled PD-1 (0.2 mM) slightly overtitrated with unlabeled PD-L1; for the mutants also NMR-monitored direct titration; PBS pH 7.4 (PD-L1) or 25 mM sodium phosphate, 100 mM NaCl pH 6.4 (PD-1)
Conditions: both partners purified

human PD-1 (residues 33–150, Cys93 exchanged to serine), sequence (Q15116 other isoform, or with tags, fused parts or gaps Cys93 exchanged to serine | Cys93 exchanged to serine): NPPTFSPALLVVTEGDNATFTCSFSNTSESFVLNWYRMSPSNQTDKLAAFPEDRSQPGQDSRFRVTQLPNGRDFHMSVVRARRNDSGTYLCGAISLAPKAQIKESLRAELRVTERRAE

binding result: binds
B1: human PD-L1 (residues 18–134, C-terminal His-tag) (domain or fragment)
chain: AFTVTVPKDLYVVEYGSNMTIECKFPVEKQLDLAALIVYWEMEDKNIIQFVHGEEDLKVQHSSYRQRARLLKDQLSLGNAALQITDVKLQDAGVYRCMISYGGADYKRITVKVNAPY
modifications: NTA-Atto 647 N fluorescent dye on the His-tag (flow cytometry only); uniform 15N labelling (NMR titration with compounds only)
notes: PD-L1, human, residues 18-134 (Ig-like V-type domain); also called sPD-L1; soluble PD-L1; source: expressed and purified as described previously [26]; 15N labelling in M9 minimal medium; not shown: His-tag, C-terminal, kept
